Experiment in all cases: cell-based or functional assay
Assay [1] concerns the target HIV-1 MGRM-AE-004 Env (pseudovirus) (HIV-1).
Assay [2] concerns the target HIV-1 Env of pseudovirus MGRM-G-017 (HIV-1).
For assay [3], the target named is HIV-1 Env of isolate MGRM-D-026 (clade D pseudovirus) (HIV-1).
Assay [4] deals with HIV-1 envelope glycoprotein (Env) of isolate MGRM-C-001 (HIV-1).
The target of assay [5] is HIV-1 Env of isolate 92RW020 (clade A pseudovirus) (HIV-1).
The target of assay [6] is HIV-1 envelope glycoprotein (Env) of isolate MGRM-C-014 (HIV-1).
The target in assay [7] is HIV-1 Env of isolate NL43, clade B (HIV-1).
The target of assay [8] is HIV-1 Env of pseudovirus MGRM-F1-010 (clade F) (HIV-1).
Assay [9] concerns the target HIV-1 Env of isolate 92UG031 (clade A pseudovirus) (HIV-1).
The target of assay [10] is HIV-1 Env of isolate 92UG005 (clade D pseudovirus) (HIV-1).
For assay [11], the target named is HIV-1 NL43 envelope (Env) on pseudovirus (HIV-1).
Assay [12] has as its target HIV-1 envelope glycoprotein (Env) of isolate MGRM-C-023 (HIV-1).
The target of assay [13] is HIV-1 Env of isolate MGRM-Chronic-B-004, clade B (HIV-1).

Sequence of 1443_C16 (PG16) (TCN-116) (antibody) (VH): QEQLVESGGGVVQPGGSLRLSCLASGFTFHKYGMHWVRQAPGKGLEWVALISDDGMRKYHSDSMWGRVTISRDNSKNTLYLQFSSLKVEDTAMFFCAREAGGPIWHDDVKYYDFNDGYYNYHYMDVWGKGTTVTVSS
Sequence of 1443_C16 (PG16) (TCN-116) (antibody) (VL): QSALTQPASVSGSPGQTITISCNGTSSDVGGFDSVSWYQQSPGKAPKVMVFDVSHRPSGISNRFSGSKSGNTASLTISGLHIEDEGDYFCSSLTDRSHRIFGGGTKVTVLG

On to 1443_C16 (PG16) (TCN-116) (antibody), for which the IC50 (µg/ml), pseudovirus neutralization in [1] is 0.002 µg/mL; in assay [2] it was 0.02 µg/mL; in assay [4] it was 16.8 µg/mL; in assay [5], 0.28 µg/mL; in assay [6] it was > 50 µg/mL; in assay [7], 0.02 µg/mL. In addition, the IC50 (µg/ml), pseudovirus neutralization in assay [9] came out at 0.43 µg/mL; in assay [12] it was 0.09 µg/mL; in assay [13], 0.01 µg/mL. For the same substance, the IC50, pseudovirus neutralization in [3] and in assay [10] was > 50 mg/L throughout. Also, the IC50 in assay [8] was 0.01 mg/L. For the same substance, the neutralization IC50 in assay [11] was < 0.0025 mg/L.

Turning to 4E10 (antibody), the IC50 (µg/ml), pseudovirus neutralization in [1] is 1.27 µg/mL; in assay [2], 1.14 µg/mL; in [4], 5.66 µg/mL; in assay [5], 4.54 µg/mL; in assay [6], 2.48 µg/mL; in assay [7], 4.67 µg/mL. Besides, the IC50 (µg/ml), pseudovirus neutralization in assay [9] was found to be 4.94 µg/mL; in [12], 1.95 µg/mL; in [13], 3.7 µg/mL. For the same substance, the IC50, pseudovirus neutralization in [3] was determined as 2.95 mg/L; in [10] it was 7.46 mg/L. In [8], this substance registered an IC50 of 3.69 mg/L. Also, the neutralization IC50 in [11] was determined as 4.95 mg/L.

As to 2F5 (antibody), the IC50 (µg/ml), pseudovirus neutralization in [1] is 0.98 µg/mL; in assay [2], 0.6 µg/mL; in [4], > 50 µg/mL; in assay [5] it was 3.36 µg/mL; in assay [6], > 50 µg/mL; in assay [7], 2.02 µg/mL. Besides, the results for the IC50 (µg/ml), pseudovirus neutralization in [9], in assay [12] and in assay [13] were 3.81 µg/mL, > 50 µg/mL and 2.41 µg/mL, respectively. Besides, the IC50, pseudovirus neutralization in assay [3] is 4.37 mg/L; in assay [10], 8.61 mg/L. The substance further registered an IC50 in assay [8] of 14.6 mg/L. Also, the neutralization IC50 in assay [11] amounted to 2.41 mg/L.

Consider 1495_C14 (PGC14) (antibody), for which the IC50 (µg/ml), pseudovirus neutralization in [1] was > 50 µg/mL; in assay [2], > 50 µg/mL; in assay [4] it was > 50 µg/mL; in assay [5], 46 µg/mL; in assay [6], > 50 µg/mL; in assay [7], 40 µg/mL. Besides, the IC50 (µg/ml), pseudovirus neutralization in assay [9], in assay [12] and in assay [13] was > 50 µg/mL in each case. Besides, the IC50, pseudovirus neutralization in assay [3] and in assay [10] was > 50 mg/L throughout. The IC50 in [8] is > 50 mg/L. This substance returned a neutralization IC50 in assay [11] of 0.373 mg/L.
